# Data as given in US20050064507A1, “Determining kinase specificity” (priority 2003, published 2005).
# Tests used:
# [1] = target: T1, PKC-zeta (Homo sapiens, UniProt Q05513); assay: In vitro kinase assay: peptide phosphorylation by PKC-zeta; type: biochemical; settings: for PKC-zeta phosphorylation: normalized to best substrate
# T1 construct: purchased Calbiochem
# T1 sequence (Q05513 1-592): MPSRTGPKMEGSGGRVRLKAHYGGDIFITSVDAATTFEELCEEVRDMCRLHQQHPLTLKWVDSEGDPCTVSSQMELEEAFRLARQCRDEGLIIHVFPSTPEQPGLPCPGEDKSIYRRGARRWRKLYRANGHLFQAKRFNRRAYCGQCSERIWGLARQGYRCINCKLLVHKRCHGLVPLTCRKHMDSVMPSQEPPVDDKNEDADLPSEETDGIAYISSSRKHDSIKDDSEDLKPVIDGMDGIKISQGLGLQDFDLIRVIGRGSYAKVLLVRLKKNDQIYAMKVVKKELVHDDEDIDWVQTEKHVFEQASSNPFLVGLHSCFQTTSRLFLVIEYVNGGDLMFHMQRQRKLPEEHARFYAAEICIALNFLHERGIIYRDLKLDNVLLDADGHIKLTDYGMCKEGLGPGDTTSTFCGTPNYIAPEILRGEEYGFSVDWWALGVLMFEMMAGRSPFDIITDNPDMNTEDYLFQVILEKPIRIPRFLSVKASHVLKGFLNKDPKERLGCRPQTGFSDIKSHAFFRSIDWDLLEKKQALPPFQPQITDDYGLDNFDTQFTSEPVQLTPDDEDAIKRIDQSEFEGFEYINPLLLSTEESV
# Protocol: Catalytically active preparations of the kinases of interest were either purchased or prepared. Purchased and tested active kinase preparations including the following: PKC-alpha, PKC-delta, PKC-epsilon, PKC-zeta, PKC-mu, PKA, PKG from Calbiochem, ROK alpha/ROCK-II, active from Upstate Biotechnology, and AKT1 from Panvera.
# (§1) The conditions of the kinase assay and the amount of active kinase used varied with the kinase and with the accuracy needed. For a typical experiment, 5-20 ng of kinase was used per well and each peptide pool was assayed in duplicate wells. Note that the absolute amount of kinase used was not usually a critical parameter, because the desired information related to specificity of the kinase not its absolute activity, and robustness of the assay depends on comparisons of the same amount of kinase on different peptides. The combination of kinase concentration and assay duration was modified to assure that the stoichiometry of peptide phosphorylation never exceeded 5%. The choice of kinase buffer depended on the kinase being analyzed. For studies of PKC, 100 mM HEPES, 0.05% Triton-X100, 1 mM CaCl2, 20 mM MgCl2, 0.2 mg/ml phosphatidyl serine (Avanti Polar Lipids), PMA 100 ng/ml was typically used. The lipid stock was prepared by transferring 3 mg phosphatidyl serine into iced mixture of 450 μl water plus 50 μl of 10% Triton-X100, sonicating 10 times on ice for 1 sec each.
# (§2) The kinase reaction mixture was assembled by sequential addition to a tube held on ice of: 5 μl peptide (100 μM for final concentration of 10 μM), 15 μl of kinase (typically 5 ng/well, in appropriate kinase buffer), 30 μl of ATP (1 uCi/well of ^32P-gamma ATP in a stock of 167 μM cold ATP in the kinase buffer; for final concentration for 100 μM ATP). The mixture was rapidly warmed to desired reaction temperature (30° C. for PKC) and incubated for the desired duration (usually 10 minutes). The kinase assay was terminated by transfer to 4° C. water batch, and rapid addition of an equal volume (50 μl) of stop solution [0.1M ATP+0.1M EDTA in water, pH 8].
# The peptides were then captured from the reaction mixture by transfer to a Reacti-Bind Streptavidin High Binding Capacity Coated Plates (HBC) (Pierce Biotechnology) as follows. The HBC plates were pre-rinsed three times with PBS/Tween PBS/Tween20 0.05% (PBS/Tween). Part of all of the reaction mixture was then transferred wells of a HBC plate pre-filled with 90 μl of phosphate-buffered saline (PBS); typically each aliquots of each phosphorylation reaction were transferred to duplicate HBC plates to assure accuracy by additional replication
# For kinase assays done at the standard peptide concentration of 10 μM, the peptide concentration in the reaction mixture becomes 5 μM after addition of the stop solution; consequently 10 μl of the reaction (50 pMoles of peptide) was transferred to the HBC plate. More generally, the amount of reaction mixture transferred was estimated to be about 50 pMoles of peptide. […] The HBC plates were incubated for 0.5 to 1.5 hr at room temperature for complete binding of biotinylated peptides to plate-bound streptavidin. The HBC plates were then washed extensively with PBS/Tween. Five washes were done routinely and additional wash steps were added if the wash solution removed from the plate had measurable radioactivity as detected using a Geiger counter. This step is essential to obtaining a good the signal to noise ratio because the fraction of radioactivity incorporated in the peptides was a tiny fraction of the total in the reaction mixture. The wells were air-dried. A volume of 40-50 μl of microScint-20 (Packard Instruments) was added to each well. The plates were covered with stick-on film sheet. Radioactive emissions were measured in a TopCount NXT Microplate Scintillation and Luminescence Counter (Packard Instruments). Typically samples were counted for 5 minutes (or more) to improve the signal to noise ratio when counts were low. […]
# [2] = target: T2, PKC-delta (Homo sapiens, UniProt Q05655); assay: In vitro kinase assay: peptide phosphorylation by PKC-delta; type: biochemical; settings: for PKC delta phosphorylation: normalized to best substrate;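 on PKC delta phosphorylation: peptide concentration 10 nM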
# T2 construct: purchased Calbiochem
# T2 sequence (Q05655 whole entry): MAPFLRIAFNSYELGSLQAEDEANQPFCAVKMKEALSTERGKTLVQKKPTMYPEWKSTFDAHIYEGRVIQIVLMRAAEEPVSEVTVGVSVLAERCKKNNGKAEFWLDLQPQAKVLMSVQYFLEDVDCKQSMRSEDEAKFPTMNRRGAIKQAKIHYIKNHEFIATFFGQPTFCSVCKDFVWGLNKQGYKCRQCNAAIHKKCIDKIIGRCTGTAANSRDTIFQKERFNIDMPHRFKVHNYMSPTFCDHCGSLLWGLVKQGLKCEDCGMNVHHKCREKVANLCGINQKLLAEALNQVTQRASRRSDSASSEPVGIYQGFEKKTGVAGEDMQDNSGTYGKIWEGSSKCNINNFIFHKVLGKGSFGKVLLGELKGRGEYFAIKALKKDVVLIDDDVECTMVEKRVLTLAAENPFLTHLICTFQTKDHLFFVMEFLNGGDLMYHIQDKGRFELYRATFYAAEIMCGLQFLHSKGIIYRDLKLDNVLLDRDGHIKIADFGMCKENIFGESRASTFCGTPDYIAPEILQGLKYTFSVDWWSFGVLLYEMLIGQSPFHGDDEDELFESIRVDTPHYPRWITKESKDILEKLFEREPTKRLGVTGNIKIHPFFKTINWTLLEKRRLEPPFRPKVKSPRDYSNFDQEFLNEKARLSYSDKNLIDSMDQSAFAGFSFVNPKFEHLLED
# From the text: One approach to validating a substrate identification method can involve, for example, comparison of substrate sites predicted by the method with in vitro phosphorylation results obtained using the selected kinase and peptides of known sequences. Such a systematic validation has been performed for the methods described herein. For example, a panel of seventy five peptides was synthesized, the phosphorylation observed for each peptide was experimentally measured, the amount of phosphorylation was quantified, the phosphorylation results for each peptide were normalized to the phosphorylation observed with the best substrate tested and these amounts were compared with predictions made according to the invention and according to the procedures provided by others. These peptides are referred to herein as proteomic peptides because their sequences are chosen from proteins in the human proteome; unlike the test sets employed herein, these peptides include no degenerate positions
# Table 2 compares the present predictions with actual measurements of phosphorylation on validating peptides. The method of synthesis of the validating peptides was as described elsewhere in the application, and each included an N-terminal linker sequence of biotinylated-Lys-dansylated-Lys-Pro-Pro-Gly (SEQ ID NO:231). The length of the remaining “core” of the validating peptides ranged from 12-21 residues with one to five S/T residues. In vitro phosphorylation of these validating peptides was measured in the manner described herein. […] In vitro phosphorylation results for the validating peptides were expressed as normalized values, namely as a percentage of phosphorylation of the best validating peptide substrate in the group.
# as §1, §2
# The peptides were then captured from the reaction mixture by transfer to a Reacti-Bind Streptavidin High Binding Capacity Coated Plates (HBC) (Pierce Biotechnology) as follows. The HBC plates were pre-rinsed three times with PBS/Tween PBS/Tween20 0.05% (PBS/Tween). […]
Substance,phosphorylation by PKC zeta ([1]; peptide concentration 1 uM),phosphorylation by PKC zeta ([1]; peptide concentration 10 uM),phosphorylation by PKC-delta ([2]; peptide concentration 1 uM),phosphorylation by PKC-delta ([2]; peptide concentration 10 uM),PKC-zeta phosphorylation [1],PKC delta phosphorylation [2]
140 (TELEGGFSRQRKRKLSFRRR) [compound 140],24,49,44,49,,
161 (KYKAFIRIPIPTRRHTFRRQ) [compound 161],15,9,22,14,,
109 (KEVVRTDSLKGRRGR) [compound 109],,,,,2%,7%
83 (RKIPKRPGSVHRTPSRQ) [compound 83],,,,,4%,38%
157 (PSPSNETPKKKKKRFSFKKS) [compound 157],3,6,27,35,,
131 (WKGKRRSKARKKRK) [compound 131],7,6,38,29,,
138 (EYLERRASRRRAV) [compound 138],31,61,49,28,,
146 (QAQRQIKRGAPPRRSSIRNA) [compound 146],32,56,33,14,,
104 (EKIKRSSLKKVDSLKK) [compound 104],,,,,3%,10%
133 (LEKRGMLGKRPRRKSSRRKK) [compound 133],27,30,46,52,,
96 (RGFLRSASLGRRASFHLE) [compound 96],,,,,22%,18%
142 (ERHVAQKKSRLRRRASQLKI) [compound 142],22,37,30,36,,
159 (LYARLARAYRRSQRASFKRA) [compound 159],25,41,15,12,,
103 (LLKKRDSFRTPRDSKLE) [compound 103],,,,,8%,12%
125 (PLKEKKRERKTSSKSSVRKR) [compound 125],13,12,46,36,,
114 (KKKKRASFKRKSSKKG) [compound 114],45,51,80,100,,
95 (KKKFRTPSFLKKSKK) [compound 95],,,,,5%,25%

Substance,phosphorylation by PKC zeta ([1]; peptide concentration 1 uM),phosphorylation by PKC zeta ([1]; peptide concentration 10 uM),phosphorylation by PKC-delta ([2]; peptide concentration 1 uM),phosphorylation by PKC-delta ([2]; peptide concentration 10 uM),PKC-zeta phosphorylation [1],PKC delta phosphorylation [2]
93 (AARKKRISVKKKQEQ) [compound 93],,,,,1%,35%
108 (KATTKKRTLRKNDRK) [compound 108],,,,,1%,6%
143 (VRYTPYTISPYNRKGSFRKQ) [compound 143],22,79,33,32,,
76 (HVRRRRGTFKRSKLRARD) [compound 76],,,,,41%,100%
79 (NRKKKRTSFKRKA) [compound 79],,,,,18%,66%
120 (AKRRRLSSLRASTSK) [compound 120],43,34,64,32,,
132 (GFLNEPLSSKSQRRKSLKLK) [compound 132],19,61,41,47,,
78 (KFARKSTRRSIRLPE) [compound 78],,,,,100%,52%
102 (AGSFKRNSIKKIV) [compound 102],,,,,2%,14%
127 (SQVQKQRSAGSFKRNSIKKI) [compound 127],19,19,52,33,,
156 (SAQITIPKDGQKRKKSLRKK) [compound 156],15,44,29,31,,
110 (EGGDRRASGRRK) [compound 110],,,,,3%,5%
158 (VQMTWSYPDEKNKRASVRRR) [compound 158],11,72,18,33,,
145 (ISDFGLAKKLAVGRHSFSRR) [compound 145],25,61,34,23,,
147 (RDIRQSPKRGFLRSASLGRR) [compound 147],28,34,27,13,,
113 (GENVLKKSMKSRVKG) [compound 113],,,,,1%,4%
